The assay addresses T1, LMO4 second LIM domain, residues 77-147 (in the tethered complex) (mouse, UniProt P61969 77-147).
T1 construct: LMO4, mouse, LIM2 domain, residues 77-147; also called LMO4_(LIM2); LMO4_(77–147)
T1 sequence (looked up): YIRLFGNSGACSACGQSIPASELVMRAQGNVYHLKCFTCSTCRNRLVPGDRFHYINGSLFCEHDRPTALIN
Nature of the assay: NMR solution structure; the two domains tethered on one chain by a glycine-serine linker; 20 mM sodium acetate pH 5.0, 35 mM NaCl, 0.5 mM TCEP-HCl. The note with it: both partners purified.

B1: DEAF1 residues 404-418 (in the tethered complex) (peptide, UniProt Q9Z1T5-1 404-418, looked up)
chain: IAPFPEAALPTSHPK
notes: Stood in the assay joined through a glycine-serine linker to the C-terminus of LMO4 77-147 on one chain; also called the DEAF1 peptide
For B1, the binding result is recorded as “binds”.

Values taken from article PMC4195752, “The Structure of an LIM-Only Protein 4 (LMO4) and Deformed Epidermal Autoregulatory Factor-1 (DEAF1) Complex Reveals a Common Mode of Binding to LMO4” (PLoS ONE, 2014).
